Experimental data taken from patent publication US20250262210A1 (TRUSTEES OF COLUMBIA UNIVERSITY IN THE CITY OF NEW YORK, published 2025).

Assays:
Test in all cases: IP/MS, LZTR1 R810W-FLAG, U87
SKIV2L = SKIV2L (human, UniProt Q15477 1-1246)
Summary of the method: (§1)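 Read-out: spectral counts from LC-MS/MS (Orbitrap Fusion) after MaxQuant identification. Variable modifications were Met oxidation, protein N-terminal acetylation and N/Q deamidation.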

AMBRA1 = target: T1, AMBRA1 (human, UniProt Q9C0C7 1-1298, limits assumed)
T1 sequence (looked up): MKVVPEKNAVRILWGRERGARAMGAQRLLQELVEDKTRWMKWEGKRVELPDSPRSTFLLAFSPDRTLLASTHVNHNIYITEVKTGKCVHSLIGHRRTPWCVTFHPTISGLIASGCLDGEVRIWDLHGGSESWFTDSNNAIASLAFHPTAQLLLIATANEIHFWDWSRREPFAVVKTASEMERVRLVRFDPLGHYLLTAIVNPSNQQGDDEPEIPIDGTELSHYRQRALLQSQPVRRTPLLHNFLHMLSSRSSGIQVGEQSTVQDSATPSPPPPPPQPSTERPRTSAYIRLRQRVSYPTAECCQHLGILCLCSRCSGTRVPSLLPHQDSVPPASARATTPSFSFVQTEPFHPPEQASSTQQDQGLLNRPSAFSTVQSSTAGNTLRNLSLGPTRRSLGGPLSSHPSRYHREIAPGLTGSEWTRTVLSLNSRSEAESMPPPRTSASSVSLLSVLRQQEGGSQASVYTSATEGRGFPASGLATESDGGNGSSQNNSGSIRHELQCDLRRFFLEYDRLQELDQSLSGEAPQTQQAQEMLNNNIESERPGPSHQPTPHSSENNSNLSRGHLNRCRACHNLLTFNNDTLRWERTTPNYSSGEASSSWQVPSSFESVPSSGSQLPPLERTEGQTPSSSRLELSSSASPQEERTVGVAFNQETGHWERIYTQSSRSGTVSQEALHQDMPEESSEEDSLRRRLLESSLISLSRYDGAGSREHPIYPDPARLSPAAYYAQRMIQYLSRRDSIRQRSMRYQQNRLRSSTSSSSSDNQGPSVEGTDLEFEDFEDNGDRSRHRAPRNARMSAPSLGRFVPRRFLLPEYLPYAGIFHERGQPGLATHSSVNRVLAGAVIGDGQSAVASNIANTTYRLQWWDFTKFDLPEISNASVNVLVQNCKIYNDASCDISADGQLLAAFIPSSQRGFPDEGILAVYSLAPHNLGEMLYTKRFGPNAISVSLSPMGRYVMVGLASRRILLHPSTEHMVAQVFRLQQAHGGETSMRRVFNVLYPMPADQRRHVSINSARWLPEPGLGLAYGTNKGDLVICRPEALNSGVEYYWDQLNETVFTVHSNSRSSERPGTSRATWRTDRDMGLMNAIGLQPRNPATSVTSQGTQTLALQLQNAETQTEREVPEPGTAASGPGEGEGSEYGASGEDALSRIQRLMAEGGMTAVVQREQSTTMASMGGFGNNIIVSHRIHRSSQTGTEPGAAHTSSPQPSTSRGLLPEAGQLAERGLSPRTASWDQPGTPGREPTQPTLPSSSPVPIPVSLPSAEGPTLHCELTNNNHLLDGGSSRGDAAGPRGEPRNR
Summary of the method: as §1

PAPPA = PAPPA (human, UniProt Q13219 82-1627)
Summary of the method: as §1

Measured: binding result

Sequence of SKIV2L (Q15477 whole entry, the tested form may be a part): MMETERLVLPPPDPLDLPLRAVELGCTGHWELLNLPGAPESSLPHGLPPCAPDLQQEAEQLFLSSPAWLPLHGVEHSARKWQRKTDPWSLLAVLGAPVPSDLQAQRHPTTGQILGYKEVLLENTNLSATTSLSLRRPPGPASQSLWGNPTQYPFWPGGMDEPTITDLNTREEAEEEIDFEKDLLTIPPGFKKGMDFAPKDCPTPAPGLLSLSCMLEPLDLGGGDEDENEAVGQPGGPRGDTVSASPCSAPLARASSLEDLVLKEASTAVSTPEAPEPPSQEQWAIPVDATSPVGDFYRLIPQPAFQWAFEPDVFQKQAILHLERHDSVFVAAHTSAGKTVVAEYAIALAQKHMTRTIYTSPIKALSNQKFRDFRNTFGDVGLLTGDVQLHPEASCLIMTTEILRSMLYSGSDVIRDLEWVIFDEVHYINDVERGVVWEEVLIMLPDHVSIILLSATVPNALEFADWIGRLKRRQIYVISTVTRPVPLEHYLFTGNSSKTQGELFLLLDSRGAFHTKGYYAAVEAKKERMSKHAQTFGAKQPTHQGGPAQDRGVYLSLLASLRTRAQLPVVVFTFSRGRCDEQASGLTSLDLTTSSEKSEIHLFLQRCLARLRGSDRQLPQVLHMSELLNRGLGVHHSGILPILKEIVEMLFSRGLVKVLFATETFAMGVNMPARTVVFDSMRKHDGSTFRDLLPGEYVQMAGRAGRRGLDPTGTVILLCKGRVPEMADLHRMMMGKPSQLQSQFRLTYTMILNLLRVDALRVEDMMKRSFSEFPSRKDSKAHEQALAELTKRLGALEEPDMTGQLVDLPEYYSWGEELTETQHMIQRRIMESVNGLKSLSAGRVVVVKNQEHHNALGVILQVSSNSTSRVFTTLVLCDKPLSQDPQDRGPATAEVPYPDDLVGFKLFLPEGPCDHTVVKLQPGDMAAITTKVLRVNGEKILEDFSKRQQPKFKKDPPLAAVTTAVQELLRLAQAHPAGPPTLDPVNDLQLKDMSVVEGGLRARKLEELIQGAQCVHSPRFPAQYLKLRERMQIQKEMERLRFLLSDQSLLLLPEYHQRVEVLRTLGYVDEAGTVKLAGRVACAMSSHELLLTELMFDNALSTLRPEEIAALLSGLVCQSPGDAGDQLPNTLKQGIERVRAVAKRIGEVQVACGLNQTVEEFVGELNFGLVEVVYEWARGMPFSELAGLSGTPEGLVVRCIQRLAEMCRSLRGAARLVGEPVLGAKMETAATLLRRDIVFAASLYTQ
Sequence of PAPPA (Q13219 82-1627 limits assumed): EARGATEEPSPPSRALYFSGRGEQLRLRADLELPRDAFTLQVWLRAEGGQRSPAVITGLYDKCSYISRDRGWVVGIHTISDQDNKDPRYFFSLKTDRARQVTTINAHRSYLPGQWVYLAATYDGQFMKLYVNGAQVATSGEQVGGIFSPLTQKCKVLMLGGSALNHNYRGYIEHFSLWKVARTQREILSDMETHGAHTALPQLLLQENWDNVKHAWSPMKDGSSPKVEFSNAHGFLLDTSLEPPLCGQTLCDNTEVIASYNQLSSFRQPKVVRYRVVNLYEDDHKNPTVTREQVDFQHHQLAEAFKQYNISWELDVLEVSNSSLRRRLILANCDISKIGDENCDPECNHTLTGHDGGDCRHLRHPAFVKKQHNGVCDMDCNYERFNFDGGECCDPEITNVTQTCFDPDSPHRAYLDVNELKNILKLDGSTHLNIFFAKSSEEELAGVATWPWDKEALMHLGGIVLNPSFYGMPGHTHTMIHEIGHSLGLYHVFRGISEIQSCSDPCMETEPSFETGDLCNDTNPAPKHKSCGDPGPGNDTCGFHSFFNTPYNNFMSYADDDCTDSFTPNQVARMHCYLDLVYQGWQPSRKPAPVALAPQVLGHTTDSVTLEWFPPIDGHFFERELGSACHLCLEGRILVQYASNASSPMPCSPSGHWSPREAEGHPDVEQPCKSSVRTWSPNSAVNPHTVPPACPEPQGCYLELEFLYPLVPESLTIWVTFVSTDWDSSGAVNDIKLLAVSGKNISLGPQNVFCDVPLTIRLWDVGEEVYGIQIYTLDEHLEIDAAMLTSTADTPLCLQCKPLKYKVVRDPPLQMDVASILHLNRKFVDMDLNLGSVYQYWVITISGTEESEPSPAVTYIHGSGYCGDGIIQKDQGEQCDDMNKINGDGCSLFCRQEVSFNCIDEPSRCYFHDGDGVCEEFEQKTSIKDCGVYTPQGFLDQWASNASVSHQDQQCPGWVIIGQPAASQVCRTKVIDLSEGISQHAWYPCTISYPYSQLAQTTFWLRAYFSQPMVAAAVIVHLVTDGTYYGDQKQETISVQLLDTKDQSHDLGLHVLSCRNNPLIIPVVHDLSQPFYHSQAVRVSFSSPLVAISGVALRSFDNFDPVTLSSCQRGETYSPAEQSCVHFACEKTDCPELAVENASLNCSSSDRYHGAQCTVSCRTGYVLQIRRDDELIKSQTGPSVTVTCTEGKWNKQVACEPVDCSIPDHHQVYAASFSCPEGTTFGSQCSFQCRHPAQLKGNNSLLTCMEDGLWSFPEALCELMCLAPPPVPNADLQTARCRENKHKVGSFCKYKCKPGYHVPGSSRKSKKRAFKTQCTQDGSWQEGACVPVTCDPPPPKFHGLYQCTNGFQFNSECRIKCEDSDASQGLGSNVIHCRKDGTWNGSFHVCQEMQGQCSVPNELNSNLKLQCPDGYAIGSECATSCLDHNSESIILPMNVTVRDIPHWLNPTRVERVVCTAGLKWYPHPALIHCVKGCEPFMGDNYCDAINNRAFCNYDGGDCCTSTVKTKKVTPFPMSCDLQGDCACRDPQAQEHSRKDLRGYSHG

B1: LZTR1 R810W-FLAG (other, human, UniProt Q8N653 1-840, looked up)
chain: MAGPGSTGGQIGAAALAGGARSKVAPSVDFDHSCSDSVEYLTLNFGPFETVHRWRRLPPCDEFVGARRSKHTVVAYKDAIYVFGGDNGKTMLNDLLRFDVKDCSWCRAFTTGTPPAPRYHHSAVVYGSSMFVFGGYTGDIYSNSNLKNKNDLFEYKFATGQWTEWKIEGRLPVARSAHGATVYSDKLWIFAGYDGNARLNDMWTIGLQDRELTCWEEVAQSGEIPPSCCNFPVAVCRDKMFVFSGQSGAKITNNLFQFEFKDKTWTRIPTEHLLRGSPPPPQRRYGHTMVAFDRHLYVFGGAADNTLPNELHCYDVDFQTWEVVQPSSDSEVGGAEVPERACASEEVPTLTYEERVGFKKSRDVFGLDFGTTSAKQPTQPASELPSGRLFHAAAVISDAMYIFGGTVDNNIRSGEMYRFQFSCYPKCTLHEDYGRLWESRQFCDVEFVLGEKEECVQGHVAIVTARSRWLRRKITQARERLAQKLEQEAAPVPREAPGVAAGGARPPLLHVAIREAEARPFEVLMQFLYTDKIKYPRKGHVEDVLLIMDVYKLALSFQLCRLEQLCRQYIEASVDLQNVLVVCESAARLQLSQLKEHCLNFVVKESHFNQVIMMKEFERLSSPLIVEIVRRKQQPPPRTPLDQPVDIGTSLIQDMKAYLEGAGAEFCDITLLLDGHPRPAHKAILAARSSYFEAMFRSFMPEDGQVNISIGEMVPSRQAFESMLRYIYYGEVNMPPEDSLYLFAAPYYYGFYNNRLQAYCKQNLEMNVTVQNVLQILEAADKTQALDMKRHCLHIIVHQFTKVSKLPTLWSLSQQLLLDIIDSLASHISDKQCAELGADI
notes: Stably expressed in U87 cells by lentivirus; also called LZTR1-FLAG-R810W; LZTR1 RW; not shown: FLAG tag
binds: all assays above
